# Data: PMC10720262 (2023)
# Biological target: PfCSP full length (Plasmodium falciparum (isolate NF54), UniProt P19597)
# Assay: ELISA AUC
# PfCSP full length, sequence (P19597 20-375): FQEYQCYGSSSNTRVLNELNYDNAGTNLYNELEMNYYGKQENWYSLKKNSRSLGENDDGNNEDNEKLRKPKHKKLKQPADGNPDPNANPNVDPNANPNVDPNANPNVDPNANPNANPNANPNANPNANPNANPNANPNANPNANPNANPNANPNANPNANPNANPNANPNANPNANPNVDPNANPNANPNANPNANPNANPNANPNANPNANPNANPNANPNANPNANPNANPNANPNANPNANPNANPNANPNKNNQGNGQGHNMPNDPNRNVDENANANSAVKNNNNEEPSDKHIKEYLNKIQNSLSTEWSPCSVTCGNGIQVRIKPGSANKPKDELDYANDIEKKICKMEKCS
row,Binder,binding score
1,"CL-512459 (antibody, V domains shown, peptides N-terminally acetylated and C-terminally amidated) VH: QVQLVESGGGVVQPGRSLRLSCTASGFTFSDYGMHWVRQAPGKGLEWVSIIWYDGSKKYYADSVQGRFTISRDNSKNTLYLQMSSLRAEDTAVYYCARAYGSGSYYTFNYWGQGTLVTVSS VL: EIVMTQSPATLSVSPGERATLSCRASQSVNSNLAWYQQKPGQAPRLLIYGASTRATGFPARFIGSGSGTDFTLTINSLQSEDFAVYYCQQYNHWWTFGQGTKVEIK",2.08
2,"CL-515341 (antibody, V domains shown, peptides N-terminally acetylated and C-terminally amidated) VH: QVYLVESGGGVVQPGKSLRLSCAASGFTFSNYGMHWVRQAPGKGLEWVAIIWHDGSNKFYSDSVRGRFTISRDNSQNTLYLQMNSLSAEDTALYFCAKDIGYSNTWDYFDYWGQGTLVTVSS VL: EIVLTQSPATLSLSPGERATLSCRASQSVNSFLAWYQQKPGQAPRLLIYDASNRATDIPDRFSGSGSGTDFTLTIRSLEPEDFAVYFCQQRSKWFTFGGGTTVEMK",2.38
3,"CL-509293 (antibody, V domains shown, peptides N-terminally acetylated and C-terminally amidated) VH: QVQLVASGGGVVQPGRSLRLTCAASGFTFSNYGMHWVRQSPGRGLEWVAIIWYDGSNKFYADSVKGRFTISRDNSKNTLYLQMNSLRAEDTAVYYCAKAEQRTNDNYYKYGMDVWGQGTTVTVST VL: not shown",2.12
4,"CL-510469 (antibody, V domains shown, peptides N-terminally acetylated and C-terminally amidated) VH: QVQLVESGGGVVQPGRSLRLSCAASGFTFSSYGMHWVRQAPGKGLEWVAVIWYDGSNQFYTDSVKGRFTISRDNSKNTLYLHMNSLRVEDTAIYYCARDGDYSSSAGDFDYWGQGTLVTVSS VL: not shown",2.16
5,"CL-447703 (antibody, V domains shown, peptides N-terminally acetylated and C-terminally amidated) VH: QVQLVESGGGVVQPGRSLRLSCEASGFTFSDHGMHWVRQGPGKGLEWVSIIWYDGSNKYYADSVKGRFTISRDNSKNTLYLEMNRLRAEDTALYYCARVWNHDDYKYSMDVWGQGTTVTVSS VL: not shown",2.5
6,"CL-453181 (antibody, V domains shown, peptides N-terminally acetylated and C-terminally amidated) VH: QVQLVESGGGVVQPGRSLRLSCAASGFTFSYYGMHWVRQAPGKGLEWVSIIWYDGSNKFYADSVKGRFTISRDNSKDTLYLEMNSLRAEDTAVYYCARVEFYNGSGRDFYYGLDVWGQGTTVTVSS VL: EIVMTQSPATLSVSPGEGATLSCRASQSVSSNLAWYQQKPGQAPRLLISGASTRATGVPARFSGSGSGTEFALTISSLQSEDFAVYYCQQYSKLWTFGQGTKVEIK",2.6
7,"CL-511776 (antibody, V domains shown, peptides N-terminally acetylated and C-terminally amidated) VH: QVQLVESGGGVVQPGRSLTLSCAASGFTFSNFGMHWVRQAPGKGLEWMAVIWYDGNNEFYADSVKGRFTISRDNSKNMLYLHMNSLRAEDTAIYYCAREGDYSASGSHWLFDPWGQGTQVTVSS VL: DIQMTQSPSTLSASVGDSITITCRASQSINIWLAWYQQKPGKAPNLLIYKASSLESGVPSRFSGSGSGTEFTLTINSLQPDDFATYYCQQYNNYVTFGGGTKVEIK",2.14
8,"CL-510640 (antibody, V domains shown, peptides N-terminally acetylated and C-terminally amidated) VH: QVQLVESGGGVVQPGRSLRLSCAASGFTFSNYGMHWVRQAPVKGLEWVAIIWYDGSNKFYADSVRGRFIISRDNSKNTLYLQMNSLRAEDTAVYFCARAREGQNSDYYGSETSYTFDSWGLGTLVTVSS VL: DIQMTQSPSTLSASVGDRVTITCRASQSISSWLAWYQQKPGKAPKFLIYKASSLESGVPSRFSGSGSGTEFTLTISSLQPDDFATYYCQQYKSYWTFGQGTKVEIK",2.16
9,"Ky15.7 (antibody, V domains shown, peptides N-terminally acetylated and C-terminally amidated) VH: QVQVVESGGGAVQPGRSLRLSCAASGFTFSNRGMHWVRQTPGKGLEWVAIIWYDGGNKFYADSVKGRFTISRDNSKNTLYLQMNSLRDEDTAVYYCVRAGDWKADKYTMDVWGQGTTVTVSS VL: DIQMTQSPSTLSASVGDRVTITCRASQSISSWLAWYQQKPGKAPKVLIYQASSLESGVPSRFSGSGSGTEFTLTISSLQPDDFATYYCQQYNSYWTFGQGTKVEIK",2.3
10,"Ky15.11 (antibody, V domains shown, peptides N-terminally acetylated and C-terminally amidated) VH: QVQLVESGGGVVQPGRSLRLSCEASGFTFSNFGMHWVRQTPVKGLEWVAIIWFDGSYKYYTDSVKGRFTISRDNSKNTLYLQMNSLRAEDTAVYYCARARKGQRSDYYGSETSYTFDNWGQGTLVTVSS VL: DIQMTQSPSTLSASVGDRVTITCRASQSINGWLAWYQQKPGKAPKFLIYKASILESGIPSRFSGSGSGTEFTLTISSLQPDDFATYYCQQYSSYWTFGQGTKVEIK",2.53
11,"CL-511862 (antibody, V domains shown, peptides N-terminally acetylated and C-terminally amidated) VH: QVQLVESGGGVVQPGKSLRLSCAASGFSFSSSGMHWVRQAPDKGLEWVAIIWYDGSHKFYADSVKGRFTISRDNSDNTLFLQMDSLRAEDTAVYYCVRAYPTSYNGNYDKYGMDVWGQGTTVTVSS VL: DIQMTQSPSTLSASVGDRVTIACRASQSISTWLAWYQQKPGKAPKLLIYKASTLESGVPSRFSGSGSGTEFTLTISSLQPDDFATYYCQQFTFYWTFGQGTKVEIK",2.53
12,"CL-513691 (antibody, V domains shown, peptides N-terminally acetylated and C-terminally amidated) VH: QVQLVESGGDVVQTGRSLRLSCAASGFTFSNYGMHWVRQAPDKGLEWVAIIWYDGSNKFYADSVKGRFTISRDNSKNTLYLHIHSLRAEDTAVYYCARDDRGDSAGPYFVYWGQGTLVTVSS VL: EIVMTQSPATLSVSPGERATLSCRASQSVSDNLAWYQQRPGQAPRLLIYGASIRATGIPARFGGSGSGTEFTLTISILQSADFAVYYCQQHDSWPWTFGQGTKVEIK",2.36
13,"CL-444592 (antibody, V domains shown, peptides N-terminally acetylated and C-terminally amidated) VH: QVQLVESGGGVVQPGRSLRLSCAASGFTFSSYGMHWVRQAPGKGLEWVAVIWYDGSNKYYADSVKGRFTISRDNSKNTLYLQMNSLRAEDTAVYYCARDGNWNYNYYYGMDVWGQGTTVTVSS VL: DIQLTQSPSFLSASVGDRVTITCWASQGISSYLAWYQQKPGKAPKLLIYAASTLQSGVPSRFSGSGSGTEFTLTISSLQPEDFATYYCQQLNSYPPTFGQGTRLEIK",1.5
14,"CL-512374 (antibody, V domains shown, peptides N-terminally acetylated and C-terminally amidated) VH: QVQLVESGGGVVQPGRSLRLSCAASGFTFSSYGMHWVRQAPGKGLEWVAVIWYDGSNKYYADSVKGRFTISRDNSKNTLYLQMNSLRAEDTAVYYCARDGGGTTRSFDLWGRGTLVTVSS VL: QSVLTQPPSVSGAPGQRVTISCTGSSSNIGAGYDVHWYQQLPGTAPKLLIYGNSNRPSGVPDRFSGSKSGTSASLAITGLQAEDEADYYCQSYDSSLSGSMFGGGTKLTVL",1.17
15,"Ky15.3 (antibody, V domains shown, peptides N-terminally acetylated and C-terminally amidated) VH: QVQLVESGGGVVQPGRSLRLSCVASGFTFSNAGMHWVRQTPGKGLEWVAIIWYDGSIKYYGESVKGRFTISRDNSKNTLYLEMSSLRAEDTAVYFCVRAYSGSLYDKYGMDVWGQGTTVIVSS VL: DIQMTQSPSTLSASVGDRVTISCRASQTISTWLAWFQQKPGKAPKLLIYAASSLQSGVPSRFSGSGSGTDFTLTISNLQPDDFATYYCQQFNSYWTFGQGTKVEIK",2.2
16,"CL-444387 (antibody, V domains shown, peptides N-terminally acetylated and C-terminally amidated) VH: QVHLVESGGGVVQPGRSLRLSCVASGFSFSSYGMHWVRQAPGKGLEWVAIIWYDGSYTYYADSVKGRFTISRDNSKNTLYLQMNSLRVEDTAVYYCAKVGLSYNGRTGAFDIWGQGTMVTVSS VL: not shown",2.3
17,"CL-437492 (antibody, V domains shown, peptides N-terminally acetylated and C-terminally amidated) VH: QEQLVESGGGVVQPGNSLRLSCVASGFTFSNHGMHWVRQAPGKGLEWVAIIWYDGSQKFYSDSVKGRFTISRDNSKNTLYLQMNSLRAEDTAIYYCARVDWSGNDWGWFDPWGQGTLVTVSS VL: EIVLTQSPDTLSLSPGERATLSCRASQTLSSRHLAWYQQKPGQAPRLLIYGASSRATGIPDRFSGSGSGTDFTLTINRLEPEDFAVFYCQQYGRLWTFGQGTKVEIK",2.2
18,"CL-512508 (antibody, V domains shown, peptides N-terminally acetylated and C-terminally amidated) VH: QVQLVESGGGVVQPGTSLRLSCGASGFTFSSYGMHWVRQAPGKGLEWVAIIWYDGNNKYYADSVKGRFTISRDNSKNTLYLQMNSLRAEDTAVYYCAKVGQFSTSSWGAFDIWGQGTMVTVSS VL: EIVLTQSPGTLPLSPGERATLSCRASQSVSSSQLAWYQQKPGQAPRLLIYGASSRATAIPDRFSGSGSGTDFTLTISRLEPEDFAVYYCQQYSRLWTFGQGTKVEIK",2.01
19,"CL-531271 (antibody, V domains shown, peptides N-terminally acetylated and C-terminally amidated) VH: QVQLVESGGGEVQPGRSLRLSCAASGFTFSNYGMHWVRQAPGKGLEWVALIWYDGNNKFYADSVNGRFTISRDNSNNTLYLQMNSLRAEDTGVYYCARSFYYVSGNFFDYWGQGTLVTVSS VL: DIPMTQSPSSVSASVGDRVTITCRASQGISTWLAWYQQKPGKAPKFLIYAASSLQSGVPSRFSGSGSGTDFTLTIYSLQPEDFATYYCQQGNSFPWTFGQGTKVEIK",2.36
20,"CL-531286 (antibody, V domains shown, peptides N-terminally acetylated and C-terminally amidated) VH: QVQLVESGGGLVQPGRSLRLSCAASGFTFSSSGMHWVRQAPGKGLEWVAVIWYDGSNKFYADSVKGRFTISRDNSKNTLYLQMNSLRAEDTAVYYCARSGYDILTGYFNFFDPWGQGTLVTVSS VL: EIVLTQSPGTLSLSPGERATLSCRASQSVSSSHLAWYQQKPGQAPRLLIYGASSRATGIPDRFSGSGSGTDFTLTISRLEPEDFAVYYCHQYVSSFTFGPGTKVDFK",2.29
21,"CL-510082 (antibody, V domains shown, peptides N-terminally acetylated and C-terminally amidated) VH: QVQLVESGGGVVQPGKSLRLSCVASGFTFSNNGMHWIRQAPGKGLEWVAIIWYDGSNKFYADSVKGRFTISRDNSHNTLYLQMNSLRAEDTAVYYCARDRMFGSGTWNYFDPWGQGTLVTVSS VL: EIVLTQSPATLSLSPGERATLSCRASQSVSTYLAWYQQKPGQAPRLLIYDASNRATGIPARFSGSGSGTDFTLTISSLEPEDFAVYYCQQRSYWWTFGQGTKVEIK",2.38
22,"CL-460506 (antibody, V domains shown, peptides N-terminally acetylated and C-terminally amidated) VH: QVQLVESGGGVVQPGRSLRLSCAASGFTFSNYGMHWVRQAPGKGLEWMAIIWYDGSNKYYADSVKGRFTISRDNSMNTLYLQMNSLRPEDTALYYCARAFYYGSGTLDYWGQGTLVTVSS VL: EIVLTQSPATLSVSPGERATLSCRASQSVSSHLAWYQQKFGQAPRLLIYGASNRATGIPARFSGSGSGTEFTLTISILQSEDFAVYYCQQYNNWFTFGPGTKIDIK",2.2
23,"CL-445457 (antibody, V domains shown, peptides N-terminally acetylated and C-terminally amidated) VH: QVQLVESGGAVVQPGTSLRLSCAASGFTFSNYGIHWVRQAPGKGLQWVALIWYNGNNKFYADSVQGRFTISRDNSKNILYLQINSLSAEDTAVYYCARAFYSDSGNYMDYWGQGALVTVSS VL: DIQMTQSPSSVSASVGDRVTITCRARQDISSRLAWYQQKPGKAPKILIYGASSLQSGVPSRFSASGSGTDFTLTISSLQPEDVASYFCQQANSFPWTFGQGTKVEIK",2
